Source: patent US10696728B2, “Polypeptides, related nucleic acids, and their uses for cell modulation and treatments” (priority 2014, dated 2020)
“Also recorded” adds a separate entry of the source.

Tests used:
wild-type human TRPV1 = target: T1, wild-type human TRPV1 (Homo sapiens, UniProt Q8NER1); assay: Heart defects in chick embryos with wild-type human TRPV1 exposed to capsaicin; format: in vivo, chicken; conditions: data not shown
T1 construct: expressed in transfected cells; host or cells: chick embryo (neural crest cells, in ovo)
T1 sequence (Q8NER1 whole entry): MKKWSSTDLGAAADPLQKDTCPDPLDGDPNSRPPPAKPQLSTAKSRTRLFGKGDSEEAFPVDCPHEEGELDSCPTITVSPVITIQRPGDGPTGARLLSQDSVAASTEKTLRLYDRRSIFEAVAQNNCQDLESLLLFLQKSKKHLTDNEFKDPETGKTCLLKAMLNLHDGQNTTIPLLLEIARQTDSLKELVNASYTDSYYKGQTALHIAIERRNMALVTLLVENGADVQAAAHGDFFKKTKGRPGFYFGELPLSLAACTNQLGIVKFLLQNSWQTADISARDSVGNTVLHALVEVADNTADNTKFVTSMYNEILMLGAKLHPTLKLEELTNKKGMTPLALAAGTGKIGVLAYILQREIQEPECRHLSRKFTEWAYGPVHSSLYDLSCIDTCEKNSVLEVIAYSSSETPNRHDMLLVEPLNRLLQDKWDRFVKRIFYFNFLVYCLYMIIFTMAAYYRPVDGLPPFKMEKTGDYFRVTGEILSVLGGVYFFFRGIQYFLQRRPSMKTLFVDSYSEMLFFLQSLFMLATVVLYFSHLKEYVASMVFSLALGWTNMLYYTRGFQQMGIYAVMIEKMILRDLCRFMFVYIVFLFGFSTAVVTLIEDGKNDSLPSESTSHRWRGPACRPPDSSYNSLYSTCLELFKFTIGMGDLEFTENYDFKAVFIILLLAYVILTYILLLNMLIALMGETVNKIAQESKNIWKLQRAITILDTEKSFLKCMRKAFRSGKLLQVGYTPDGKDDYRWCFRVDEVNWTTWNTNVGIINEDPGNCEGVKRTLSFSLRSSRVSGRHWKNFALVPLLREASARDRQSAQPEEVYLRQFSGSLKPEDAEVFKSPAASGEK

CaMKii = assay: Western blot for phosphorylation of CaMKii (threonine 286) in HEK cells; format: cell-based; conditions: for level of p-CaMKii following RF stimulation: 36 hrs after transfection, FIG. 13
Description: HEK cells were transiently transfected with TRPv1.D5. 36 hrs after transfection, TRPv1.D5 cells were exposed to RF. At time points indicated, cells were lysed and protein analyzed by western blot for phosphorylation of CaMKii on threonine^286 (p-CaMKii) using phospho-specific antibodies (top panel). Control cells (0 min) had very little detectable p-CaMKii.

human ferritin = assay: Subcellular distribution of ferritin (FTH1-mCherry) in HEK-293 cells, confocal imaging; format: cell-based; conditions: co-transfection with FTH1-mCherry in HEK-293, FIG. 9a/9b
human ferritin, sequence (P02794 whole entry, the tested form may be a part): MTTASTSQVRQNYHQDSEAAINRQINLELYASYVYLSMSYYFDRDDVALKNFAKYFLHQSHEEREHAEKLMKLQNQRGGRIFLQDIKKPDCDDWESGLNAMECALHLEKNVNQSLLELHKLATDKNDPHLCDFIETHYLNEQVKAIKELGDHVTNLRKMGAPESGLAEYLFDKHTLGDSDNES
Excerpt: TRPV1.D5 redistributes endogenous ferritin to membranes. To visualize subcellular distribution of ferritin, we fused human ferritin with mCherry (FTH1-mCherry) at the C-terminal. Expression of FTH1-mCherry in HEK-293 yielded normal cytoplasmic distribution.

HEK-293 cells = assay: GCaMP fluorescence in mCherry+ HEK-293 cells in response to RF (190 MHz Helmholtz coil) or capsaicin; format: cell-based; conditions: for GCaMP response to capsaicin: 1 μM capsaicin; for Ca2+ permeability following RF: RF stimulation 190 MHz, FIG. 12
Excerpt: A Helmholtz coil (190 MHz) was placed over a petri dish loaded with HEK-293 cells. RF power was supplied by a broadband (0-400 MHz) signal generator and amplified using a 10-W linear amplifier. We used GCaMP as an intracellular calcium indicator whose intensity is proportional to the amount of bound calcium. Using widefield fluorescent microscopy, we measured the change in GCaMP fluorescence in mCherry+ cells expressing TRPV1 and TRPV1.D5 in response to RF stimulation.

HEK cells = assay: GCaMP fluorescence (Ca2+ influx) in HEK cells at three levels of applied RF field; format: cell-based; conditions: for increase of green fluorescence emitted by GCAMP, all cells (both green and red) / increase of green fluorescence emitted by GCAMP, cells that visually became brighter: FIG. 11
Description: Expression of TRPv1.D5 in HEK cells: HEK cell expression was performed using transient transfection. Briefly, 1 μg of plasmid was mixed with Lipofectamine LTX with PLUS reagent (Life Technologies) following the manufacturer instructions. Expression was confirmed by standard western blot technique. Once expression was confirmed, pLVX.TRPv1.D5 was co-transfected with a plasmid containing GCaMP6 (addgene). GCaMP6 is a genetically encoded Calcium indicator. Its green fluorescence increases in the presence of increasing amounts of intracellular calcium. Green fluorescence was analyzed in HEK cells using MetaFluor Analyst Software (Molecular Devices) following manufacture instructions. Transfected cells were analyzed prior to RF exposure and during 10 minutes of RF exposure, as discussed below.
The intensity of red fluorescence protein (RFP) indicates the cells that expressed TRPV1.D5 with mCherry.
FIG. 11 quantifies the fluorescence intensity at three levels of applied electromagnetic fields. Red fluorescence emitted by mCherry (“Red Fluorescence”) increased by less than 6.5% at the end of experiments. Green fluorescence (GCaMP3) emitted by GCAMP in cells without TRPV1.D5 (“GCAMP-TRPV1 (green only, not red)”) increased by less than 6.9%.

chick embryos = assay: Congenital heart defects in chick embryos with channel expression in neural crest cells; format: in vivo, chicken
ferritin = assay: Co-immunoprecipitation of ferritin with Flag-tagged channel; format: binding, human
ferritin, sequence (P02794 whole entry): as the sequence (P02794 whole entry, the tested form may be a part) above

[1] = system: Neural Crest Cells (NCCs) in chicken embryos; assay: p-CaMKii immunostaining in neural crest cells of chick embryos after in ovo electroporation; format: in vivo
Excerpt: To determine if Ca^2+ flow could be modulated in vivo, we targeted wild-type TRPV1 or TRPV1.D5 expression to pre-migratory Neural Crest Cells (NCCs) in chicken embryos. NCC migration is dependent on control of Ca^2+ influx. (See, Hutson et al. 2003) NCCs transverse long distances through the embryo to enable proper heart development (e.g. outflow tracts). We utilized RF to increase Ca^2+ flow in NCCs while these cells were migrating out of the dorsal neural tube.
TRPV1.D5 was cloned into pLVX-EF1α-IRES-mCherry vectors. Plasmid DNA was then electroporated in ovo into the dorsal neural tube of chick embryos at Hamburger-Hamilton stage 9-11 to target premigratory NCCs. Twenty four hours later, expression of mCherry was confirmed and eggs were then subjected to no RF (FIG. 14a, control) or 10 minutes of RF (FIG. 14b and FIG. 14c). Immediately afterwards, embryos were removed and fixed in paraformaldehyde. These embryos were cryosectioned and stained for mCherry to identify TRPv1.D5+ cells and phosphorylated CaMKii (p-CaMKii) using an anti-Phospho-CaMKII antibody.

Molecule | subcellular distribution of FTH1-mCherry (ferritin) (human ferritin) | GCaMP response to capsaicin (HEK-293 cells) | Ca2+ permeability following RF (HEK-293 cells) | increase of green fluorescence emitted by GCAMP, all cells (both green and red) (HEK cells; high RF (132 G)) [%] | increase of green fluorescence emitted by GCAMP, cells that visually became brighter (HEK cells; high RF (132 G)) [%] | increase of green fluorescence emitted by GCAMP, all cells (both green and red) (HEK cells; low RF (62 G)) [%] | increase of green fluorescence emitted by GCAMP, cells that visually became brighter (HEK cells; low RF (62 G)) [%] | other results
COc1cc(CNC(=O)CCCC/C=C/C(C)C)ccc1O [capsaicin, reference compound] |  |  |  |  |  |  |  | replication of the defects caused by TRPV1.D5+RF (wild-type human TRPV1): replicated; phosphorylation of CaMKii (CaMKii; 1 μm Capsaicin (Cap+), TRPv1.D5 transfected HEK cells): induced phosphorylation of CaMKii
TRPV1: Transient Receptor Potential channel Vanilloid 1, full length, amplified from mouse spinal cord cDNA; wild-type comparison channel without D5 (protein, Flag tag; Mouse TRPV1) MEKWASLDSDESEPPAQENSCPDPPDRDPNSKPPPAKPHIFATRSRTRLFGKGDSEEASPMDCPYEEGGLASCPIITVSSVVTLQRSVDGPTCLRQTSQDSVSTGVETPPRLYDRRSIFDAVAQSNCQELESLLSFLQKSKKRLTDSEFKDPETGKTCLLKAMLNLHNGQNDTIALLLDIARKTDSLKQFVNASYTDSYYKGQTALHIAIERRNMALVTLLVENGADVQAAANGDFFKKTKGRPGFYFGELPLSLAACTNQLAIVKFLLQNSWQPADISARDSVGNTVLHALVEVADNTADNTKFVTNMYNEILILGAKLHPTLKLEELTNKKGLTPLALAASSGKIGVLAYILQREIHEPECRHLSRKFTEWAYGPVHSSLYDLSCIDTCEKNSVLEVIAYSSSETPNRHDMLLVEPLNRLLQDKWDRFVKRIFYFNFFVYCLYMIIFTTAAYYRPVEGLPPYKLNNTVGDYFRVTGEILSVSGGVYFFFRGIQYFLQRRPSLKSLFVDSYSEILFFVQSLFMLVSVVLYFSHRKEYVASMVFSLAMGWTNMLYYTRGFQQMGIYAVMIEKMILRDLCRFMFVYLVFLFGFSTAVVTLIEDGKNNSLPVESPPHKCRGSACRPGNSYNSLYSTCLELFKFTIGMGDLEFTENYDFKAVFIILLLAYVILTYILLLNMLIALMGETVNKIAQESKNIWKLQRAITILDTEKSFLKCMRKAFRSGKLLQVGFTPDGKDDFRWCFRVDEVNWTTWNTNVGIINEDPGNCEGVKRTLSFSLRSGRVSGRNWKNFALVPLLRDASTRDRHSTQPEEVQLKHYTGSLKPEDAEVFKDSMAPGEK | cytoplasmic distribution was not altered | responded equally well | only TRPV1.D5 induced a transient increase | 22.2 | 151.3 | 9.0 | 48.3 | development of heart defects (chick embryos; with or without RF): Neither the TRPV1 embryos (with or without RF) nor the non-RF treated TRPV1.D5 embryos developed any defects
TRPV1.D5: mouse TRPV1 linked to human domain 5 of kininogen 1 (SEQ ID NO:2), fusion protein expressed from pLVX vector (protein, Flag tag; mouse/human chimera TRPv1.D5) MEKWASLDSDESEPPAQENSCPDPPDRDPNSKPPPAKPHIFATRSRTRLFGKGDSEEASPMDCPYEEGGLASCPIITVSSVVTLQRSVDGPTCLRQTSQDSVSTGVETPPRLYDRRSIFDAVAQSNCQELESLLSFLQKSKKRLTDSEFKDPETGKTCLLKAMLNLHNGQNDTIALLLDIARKTDSLKQFVNASYTDSYYKGQTALHIAIERRNMALVTLLVENGADVQAAANGDFFKKTKGRPGFYFGELPLSLAACTNQLAIVKFLLQNSWQPADISARDSVGNTVLHALVEVADNTADNTKFVTNMYNEILILGAKLHPTLKLEELTNKKGLTPLALAASSGKIGVLAYILQREIHEPECRHLSRKFTEWAYGPVHSSLYDLSCIDTCEKNSVLEVIAYSSSETPNRHDMLLVEPLNRLLQDKWDRFVKRIFYFNFFVYCLYMIIFTTAAYYRPVEGLPPYKLNNTVGDYFRVTGEILSVSGGVYFFFRGIQYFLQRRPSLKSLFVDSYSEILFFVQSLFMLVSVVLYFSHRKEYVASMVFSLAMGWTNMLYYTRGFQQMGIYAVMIEKMILRDLCRFMFVYLVFLFGFSTAVVTLIEDGKNNSLPVESPPHKCRGSACRPGNSYNSLYSTCLELFKFTIGMGDLEFTENYDFKAVFIILLLAYVILTYILLLNMLIALMGETVNKIAQESKNIWKLQRAITILDTEKSFLKCMRKAFRSGKLLQVGFTPDGKDDFRWCFRVDEVNWTTWNTNVGIINEDPGNCEGVKRTLSFSLRSGRVSGRNWKNFALVPLLRDASTRDRHSTQPEEVQLKHYTGSLKPEDAEVFKDSMAPGEKCSRVSPPHTSMAPAQDEERDSGKEQGHTRRHDWGHEKQRKHNLGHGHKHERDQGHGHQRGHGLGHGHEQQHGLGHGHKFKLDDDLEHQGGHVLDHGHKHKHGHGHGKHKNKGKKNGKHNGWKTEHLASL | redistributed FTH1-mCherry to cell membranes | responded equally well | induced a transient increase in Ca^2+ permeability; also recorded: increases Ca^2+ ion modulation | 22.2 | 151.3 | 9.0 | 48.3 | time of peak p-CaMKii level following RF stimulation (CaMKii; TRPv1.D5+ HEK cells): 10 min; level of p-CaMKii following RF stimulation (CaMKii; TRPv1.D5+ HEK cells): induces p-CaMKii; level of p-CaMKii following RF stimulation (CaMKii; TRPv1.D5+ HEK cells, listed as TRPv1.D5): increases; co-immunoprecipitation of Ferritin-mCherry (ferritin; Flag-labelled channel, FIG. 9e, listed as Flag-TRPV1.D5): co-immunoprecipitates; pull-down of ferritin-mCherry and endogenous ferritin by immunoprecipitation (ferritin; data not shown): successfully pulled down both ferritin-mCherry and endogenous ferritin; p-CaMKii in neural crest cells ([1]; 10 minutes of RF, FIG. 14b/14c): clear co-localization of the mutant channel and p-CaMKii; p-CaMKii in neural crest cells ([1]; no RF (control animals), FIG. 14a): did not observe detectable levels of p-CaMKii; GCAMP3 intensity on application of RF/EM fields (HEK cells; with vs without RF, FIG. 10): increased in the presence of RF; also recorded: increased GCAMP3 intensity; heart defects on RF activation in cardiac neural crest cells (chick embryos; RF for 10 minutes, FIG. 15): results in heart defects; embryos that developed congenital heart defects (VSD, double outlet right ventricle, transposition of great vessels) (chick embryos; RF-treated, day 10 post experiments): ~60%; development of heart defects (chick embryos; non-RF treated): nor the non-RF treated TRPV1.D5 embryos developed any defects
